According to patent US20210040193A1 (published 2021):

How the values were obtained:
[1] = target: T1, Recombinant human PD-1 (Beijing Sino Biological Inc., Catalog No. 10377-H08H) (human, UniProt Q15116 25-167); experiment: ELISA; panel A
[2] = target: T1, Recombinant human PD-1 (Beijing Sino …); experiment: ELISA; panel B

T1 sequence (Q15116 25-167): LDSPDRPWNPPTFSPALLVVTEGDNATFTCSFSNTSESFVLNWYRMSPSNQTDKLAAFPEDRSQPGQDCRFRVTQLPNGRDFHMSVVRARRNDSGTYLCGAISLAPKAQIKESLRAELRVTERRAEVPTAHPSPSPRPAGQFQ

EC50 [1]: 0.061 nM
EC50 [2]: 0.04 nM
B1: PD-1 (BJHM) monoclonal antibody (antibody, V domains shown)
VH: EVNLVESGGGLVQPGGSLRLSCAASGFTFSSYGMSWVRQAPGKGLEWVASISGGGRYTYYPDSMKGRFTISRDNSKNNLYLQMNSLRAEDTAVYYCVYEYFYTMDYWGQGTLVTVSS
VL: DIVLTQSPATLSLSPGERATLSCRASQSISNNLHWYQQKPGQAPRLLIRFASQSISGIPARFSGSGSGTDFTLTISSLEPEDFAVYFCQQSDNWPLTFGGGTKVEIK
